Data on 3 molecules can be found in paper PMC6218115 (2018).

Non-standard residues stand in square brackets, D forms with d. No end group written: not given here.

Test [1] deals with human serum albumin (HSA) (Homo sapiens, UniProt P02768). Kind of test: TRANSIL XL HSA bead binding with liquid scintillation counting.
The target in test [2] is alpha-1-acid glycoprotein (AGP) (Homo sapiens, UniProt P02763). Description: TRANSIL XL AGP bead binding with liquid scintillation counting.
alpha-1-acid glycoprotein (AGP), sequence (P02763 19-201): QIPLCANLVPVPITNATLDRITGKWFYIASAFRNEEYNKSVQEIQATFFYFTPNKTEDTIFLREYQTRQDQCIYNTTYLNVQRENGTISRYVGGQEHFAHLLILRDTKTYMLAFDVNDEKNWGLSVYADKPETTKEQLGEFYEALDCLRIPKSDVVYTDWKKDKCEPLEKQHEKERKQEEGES

With [dR][dK][dR][dI][dR][dL][dV][dT][dK][dK][dK][dR][dR][dK][dR][dI][dR][dL][dV][dT][dK][dK][dK][dR]-NH2 (also: 3H-labelled tracer) [tANK6], the Kd (commonly the free concentration of one partner at which half of the binding sites on the other are occupied at equilibrium, for simple one-to-one binding) in test [1] is 138000 nM; in test [2] it was 60 nM.
The molecule [dR][dK][dR][dI][dR][dL][dV][dT][dK][dK][dK][dR]-NH2 (also: 3H-labelled tracer) [ANK6] had a Kd in test [2] of 290 nM.
cyclo([dR][dK][dR][dI][dR][dL][dV][dT][dK][dK][dK][dR][dR]) (also: 3H-labelled tracer) [cANK6r]: the Kd in test [1] came to 599000 nM; in test [2] it was 280 nM.
